From publication PMC4389316, “C-terminal residues of skeletal muscle calsequestrin are essential for calcium binding and for skeletal ryanodine receptor inhibition” (Skeletal Muscle, 2015)
Numbering of substitutions follows the chain as printed.

B1: wild-type (WT) calsequestrin type 1 (CSQ1), rabbit (natural protein, UniProt P07221 29-395, looked up)
chain: EEGLDFPEYDGVDRVINVNAKNYKNVFKKYEVLALLYHEPPEDDKASQRQFEMEELILELAAQVLEDKGVGFGLVDSEKDAAVAKKLGLTEEDSIYVFKEDEVIEYDGEFSADTLVEFLLDVLEDPVELIEGERELQAFENIEDEIKLIGYFKNKDSEHYKAFKEAAEEFHPYIPFFATFDSKVAKKLTLKLNEIDFYEAFMEEPVTIPDKPNSEEEIVNFVEEHRRSTLRKLKPESMYETWEDDMDGIHIVAFAEEADPDGYEFLEILKSVAQDNTDNPDLSIIWIDPDDFPLLVPYWEKTFDIDLSAPQIGVVNVTDADSVWMEMDDEEDLPSAEELEDWLEDVLEGEINTEDDDDEDDDDDDDD
notes: GST was cleaved with Factor Xa for single channel and 45Ca studies; probably GST-CSQ1 on Glutathione Sepharose; the discussion calls WT 'full-length CSQ1', while the numbering (C-terminus = 367) is that of the mature protein; also called WT CSQ1; WT CSQ; source: rabbit CSQ1 cDNA in pGEX5x1, expressed as previously described [34], purified
B2: CSQ1DA3 (rabbit CSQ1 with three alternate C-terminal acidic residues changed to alanine) (natural protein, UniProt P07221 29-395, looked up)
chain: B1 chain with D363A, D365A, D367A
notes: GST state as for m1; also called CSQ1D∆3; source: rabbit CSQ1 cDNA in pGEX5x1, expressed as previously described [34], purified
B3: CSQ1_(∆C14) (rabbit CSQ1 lacking the whole C-terminal tail, residues 354-367) (domain or fragment, UniProt P07221 29-381, looked up)
chain: EEGLDFPEYDGVDRVINVNAKNYKNVFKKYEVLALLYHEPPEDDKASQRQFEMEELILELAAQVLEDKGVGFGLVDSEKDAAVAKKLGLTEEDSIYVFKEDEVIEYDGEFSADTLVEFLLDVLEDPVELIEGERELQAFENIEDEIKLIGYFKNKDSEHYKAFKEAAEEFHPYIPFFATFDSKVAKKLTLKLNEIDFYEAFMEEPVTIPDKPNSEEEIVNFVEEHRRSTLRKLKPESMYETWEDDMDGIHIVAFAEEADPDGYEFLEILKSVAQDNTDNPDLSIIWIDPDDFPLLVPYWEKTFDIDLSAPQIGVVNVTDADSVWMEMDDEEDLPSAEELEDWLEDVLEGEINT

Key:
junctin = experiment: co-immunoprecipitation (CSQ1 IP, Western blot densitometry); conditions: 1 mM Ca2+; parent: est. 100; read off a plot
[1] = molecular target: ryanodine receptor type 1 (RyR1), purified (rabbit (endogenous in skeletal muscle …, UniProt P11716 1-5037)); experiment: cell-based or functional assay
Sequence of ryanodine receptor type 1 (RyR1), purified (rabbit (P11716 whole entry): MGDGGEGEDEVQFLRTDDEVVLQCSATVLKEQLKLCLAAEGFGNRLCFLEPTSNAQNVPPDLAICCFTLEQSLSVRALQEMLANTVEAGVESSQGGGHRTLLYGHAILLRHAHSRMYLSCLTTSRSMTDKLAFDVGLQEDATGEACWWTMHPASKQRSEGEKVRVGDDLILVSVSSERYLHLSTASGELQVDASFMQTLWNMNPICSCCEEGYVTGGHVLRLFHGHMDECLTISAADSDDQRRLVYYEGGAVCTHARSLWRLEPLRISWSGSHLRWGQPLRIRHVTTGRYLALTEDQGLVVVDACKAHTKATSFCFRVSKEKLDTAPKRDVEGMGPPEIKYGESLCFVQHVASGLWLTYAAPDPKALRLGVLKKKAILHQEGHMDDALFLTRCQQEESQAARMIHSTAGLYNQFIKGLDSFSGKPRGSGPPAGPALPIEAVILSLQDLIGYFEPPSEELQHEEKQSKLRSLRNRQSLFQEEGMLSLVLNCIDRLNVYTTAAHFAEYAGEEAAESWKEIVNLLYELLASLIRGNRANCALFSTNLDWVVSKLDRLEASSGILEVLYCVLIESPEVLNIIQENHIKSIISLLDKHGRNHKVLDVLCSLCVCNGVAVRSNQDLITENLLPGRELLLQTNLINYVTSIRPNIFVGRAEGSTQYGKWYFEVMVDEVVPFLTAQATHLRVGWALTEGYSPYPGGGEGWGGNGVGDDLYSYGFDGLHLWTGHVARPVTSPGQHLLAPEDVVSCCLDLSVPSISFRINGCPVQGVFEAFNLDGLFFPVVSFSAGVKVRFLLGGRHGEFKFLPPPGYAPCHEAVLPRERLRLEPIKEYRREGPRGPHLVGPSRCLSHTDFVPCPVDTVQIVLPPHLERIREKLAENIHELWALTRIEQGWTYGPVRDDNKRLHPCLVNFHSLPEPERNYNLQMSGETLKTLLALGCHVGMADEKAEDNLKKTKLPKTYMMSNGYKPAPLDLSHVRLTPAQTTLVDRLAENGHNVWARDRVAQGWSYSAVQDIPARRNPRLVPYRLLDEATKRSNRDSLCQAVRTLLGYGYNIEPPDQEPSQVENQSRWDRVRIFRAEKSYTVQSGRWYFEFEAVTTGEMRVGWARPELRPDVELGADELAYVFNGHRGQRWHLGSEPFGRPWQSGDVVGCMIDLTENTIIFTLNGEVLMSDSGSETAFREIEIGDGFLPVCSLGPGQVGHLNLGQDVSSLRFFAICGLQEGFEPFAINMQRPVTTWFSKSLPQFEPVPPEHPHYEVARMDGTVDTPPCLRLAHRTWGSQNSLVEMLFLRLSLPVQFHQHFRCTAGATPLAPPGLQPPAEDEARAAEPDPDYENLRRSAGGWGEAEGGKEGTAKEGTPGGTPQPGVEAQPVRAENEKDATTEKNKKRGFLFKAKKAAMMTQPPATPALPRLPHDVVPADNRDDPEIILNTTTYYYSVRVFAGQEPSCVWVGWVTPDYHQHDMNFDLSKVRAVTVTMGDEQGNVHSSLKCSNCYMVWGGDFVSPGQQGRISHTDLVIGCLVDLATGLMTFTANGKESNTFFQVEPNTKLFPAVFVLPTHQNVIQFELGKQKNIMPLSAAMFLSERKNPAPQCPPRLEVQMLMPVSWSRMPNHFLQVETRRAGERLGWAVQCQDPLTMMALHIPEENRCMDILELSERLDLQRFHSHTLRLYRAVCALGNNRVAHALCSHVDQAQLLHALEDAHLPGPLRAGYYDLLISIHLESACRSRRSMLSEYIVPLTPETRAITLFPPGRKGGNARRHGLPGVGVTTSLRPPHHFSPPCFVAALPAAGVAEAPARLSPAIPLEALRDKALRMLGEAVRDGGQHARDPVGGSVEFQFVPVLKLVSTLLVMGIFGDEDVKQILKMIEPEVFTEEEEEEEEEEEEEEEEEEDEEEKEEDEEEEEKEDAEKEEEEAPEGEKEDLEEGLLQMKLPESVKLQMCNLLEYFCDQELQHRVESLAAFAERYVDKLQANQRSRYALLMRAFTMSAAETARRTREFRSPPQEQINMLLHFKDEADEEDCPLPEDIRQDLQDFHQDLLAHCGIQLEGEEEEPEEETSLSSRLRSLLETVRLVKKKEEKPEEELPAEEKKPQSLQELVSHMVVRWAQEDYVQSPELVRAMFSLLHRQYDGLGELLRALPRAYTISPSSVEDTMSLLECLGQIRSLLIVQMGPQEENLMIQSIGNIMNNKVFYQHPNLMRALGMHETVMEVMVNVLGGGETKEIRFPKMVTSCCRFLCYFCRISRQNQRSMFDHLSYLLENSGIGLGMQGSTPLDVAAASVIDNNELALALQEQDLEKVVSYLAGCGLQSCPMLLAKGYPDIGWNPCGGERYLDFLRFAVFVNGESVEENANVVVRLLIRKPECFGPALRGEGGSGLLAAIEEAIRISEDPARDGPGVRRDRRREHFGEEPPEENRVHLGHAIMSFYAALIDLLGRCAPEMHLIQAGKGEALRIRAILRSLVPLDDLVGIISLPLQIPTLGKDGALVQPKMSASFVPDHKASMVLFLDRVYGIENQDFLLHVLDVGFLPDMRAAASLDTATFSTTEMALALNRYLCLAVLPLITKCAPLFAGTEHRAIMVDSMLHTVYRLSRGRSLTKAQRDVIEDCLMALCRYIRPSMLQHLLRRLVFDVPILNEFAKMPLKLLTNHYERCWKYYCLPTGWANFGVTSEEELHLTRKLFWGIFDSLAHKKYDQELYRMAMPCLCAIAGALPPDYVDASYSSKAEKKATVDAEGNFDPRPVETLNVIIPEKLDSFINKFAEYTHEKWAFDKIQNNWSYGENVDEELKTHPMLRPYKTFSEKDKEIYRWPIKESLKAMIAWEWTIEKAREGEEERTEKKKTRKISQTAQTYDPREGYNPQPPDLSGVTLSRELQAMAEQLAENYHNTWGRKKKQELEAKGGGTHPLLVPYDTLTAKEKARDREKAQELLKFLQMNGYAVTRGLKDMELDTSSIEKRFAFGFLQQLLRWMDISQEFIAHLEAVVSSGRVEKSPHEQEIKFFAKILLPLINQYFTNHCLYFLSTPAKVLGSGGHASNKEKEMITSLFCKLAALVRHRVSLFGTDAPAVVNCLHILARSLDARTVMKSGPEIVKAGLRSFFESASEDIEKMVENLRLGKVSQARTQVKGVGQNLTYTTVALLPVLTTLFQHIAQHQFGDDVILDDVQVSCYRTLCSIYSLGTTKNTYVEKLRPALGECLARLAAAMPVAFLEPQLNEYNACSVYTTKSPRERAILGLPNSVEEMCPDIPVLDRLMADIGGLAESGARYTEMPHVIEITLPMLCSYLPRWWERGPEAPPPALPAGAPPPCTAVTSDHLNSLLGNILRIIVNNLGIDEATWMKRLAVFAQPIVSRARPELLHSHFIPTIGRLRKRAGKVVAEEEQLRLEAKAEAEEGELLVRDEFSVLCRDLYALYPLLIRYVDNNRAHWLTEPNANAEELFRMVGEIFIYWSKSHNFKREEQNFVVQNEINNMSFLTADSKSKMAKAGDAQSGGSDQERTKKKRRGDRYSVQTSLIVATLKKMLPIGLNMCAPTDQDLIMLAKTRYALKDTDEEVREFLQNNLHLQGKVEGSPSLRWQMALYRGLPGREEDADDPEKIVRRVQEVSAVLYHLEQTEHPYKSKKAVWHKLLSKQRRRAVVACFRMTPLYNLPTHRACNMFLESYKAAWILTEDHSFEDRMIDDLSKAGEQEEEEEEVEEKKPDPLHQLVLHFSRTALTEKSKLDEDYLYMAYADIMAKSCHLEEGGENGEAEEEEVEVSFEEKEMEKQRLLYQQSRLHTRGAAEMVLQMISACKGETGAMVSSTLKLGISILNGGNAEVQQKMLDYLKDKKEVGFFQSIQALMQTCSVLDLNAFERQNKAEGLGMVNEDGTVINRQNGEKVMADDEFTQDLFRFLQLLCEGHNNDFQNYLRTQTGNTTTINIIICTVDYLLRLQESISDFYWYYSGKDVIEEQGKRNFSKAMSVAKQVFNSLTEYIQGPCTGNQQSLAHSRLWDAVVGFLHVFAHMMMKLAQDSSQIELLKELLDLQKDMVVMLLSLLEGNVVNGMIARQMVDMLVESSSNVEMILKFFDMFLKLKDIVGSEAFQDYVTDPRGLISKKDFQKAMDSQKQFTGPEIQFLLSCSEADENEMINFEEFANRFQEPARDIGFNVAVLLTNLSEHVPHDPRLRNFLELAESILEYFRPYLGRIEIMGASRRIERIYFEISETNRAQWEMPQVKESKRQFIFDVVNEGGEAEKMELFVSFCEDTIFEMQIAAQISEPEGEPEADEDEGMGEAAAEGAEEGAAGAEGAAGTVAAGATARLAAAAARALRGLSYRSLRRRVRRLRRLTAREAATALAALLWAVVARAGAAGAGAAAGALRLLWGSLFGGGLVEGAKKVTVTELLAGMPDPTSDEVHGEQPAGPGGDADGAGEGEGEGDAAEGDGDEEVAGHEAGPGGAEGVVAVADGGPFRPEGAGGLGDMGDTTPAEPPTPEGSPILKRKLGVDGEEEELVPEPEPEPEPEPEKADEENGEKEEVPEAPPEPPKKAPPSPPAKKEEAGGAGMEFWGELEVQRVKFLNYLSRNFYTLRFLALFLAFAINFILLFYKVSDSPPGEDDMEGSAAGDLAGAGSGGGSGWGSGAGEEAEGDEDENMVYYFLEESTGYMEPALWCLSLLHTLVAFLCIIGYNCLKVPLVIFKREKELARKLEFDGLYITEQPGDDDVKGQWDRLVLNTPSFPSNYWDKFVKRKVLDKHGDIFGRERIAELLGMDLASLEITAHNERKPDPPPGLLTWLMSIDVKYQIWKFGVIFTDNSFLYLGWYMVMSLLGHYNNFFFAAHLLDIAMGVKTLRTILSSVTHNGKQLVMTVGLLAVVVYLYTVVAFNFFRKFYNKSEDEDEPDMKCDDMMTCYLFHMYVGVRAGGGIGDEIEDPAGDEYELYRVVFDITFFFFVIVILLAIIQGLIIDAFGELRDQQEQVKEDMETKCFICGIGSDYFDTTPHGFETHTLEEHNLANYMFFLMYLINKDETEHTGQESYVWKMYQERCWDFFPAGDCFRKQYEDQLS

[2] = molecular target: T1, skeletal triadin 95 kDa (trisk95) (rabbit (endogenous in skeletal muscle …, UniProt Q28820 1-706)); experiment: co-IP; purified CSQ1 construct coupled to anti-CSQ1/protein A/G agarose (Pierce kit), then exposed to purified trisk95 or junctin; 20 mM MOPS, 150 mM NaCl, 1 mM CaCl2, pH 7.4; CSQ1 to partner 2:1 by weight; Western blot; conditions: both partners purified
T1 construct: triadin, skeletal muscle 95 kDa isoform, isolated from SR vesicles of New Zealand White rabbit back and leg muscle; also called triadin skeletal muscle 95 kDa; source: purified from rabbit skeletal SR vesicles (SDS preparative gel electrophoresis)
T1 sequence (looked up): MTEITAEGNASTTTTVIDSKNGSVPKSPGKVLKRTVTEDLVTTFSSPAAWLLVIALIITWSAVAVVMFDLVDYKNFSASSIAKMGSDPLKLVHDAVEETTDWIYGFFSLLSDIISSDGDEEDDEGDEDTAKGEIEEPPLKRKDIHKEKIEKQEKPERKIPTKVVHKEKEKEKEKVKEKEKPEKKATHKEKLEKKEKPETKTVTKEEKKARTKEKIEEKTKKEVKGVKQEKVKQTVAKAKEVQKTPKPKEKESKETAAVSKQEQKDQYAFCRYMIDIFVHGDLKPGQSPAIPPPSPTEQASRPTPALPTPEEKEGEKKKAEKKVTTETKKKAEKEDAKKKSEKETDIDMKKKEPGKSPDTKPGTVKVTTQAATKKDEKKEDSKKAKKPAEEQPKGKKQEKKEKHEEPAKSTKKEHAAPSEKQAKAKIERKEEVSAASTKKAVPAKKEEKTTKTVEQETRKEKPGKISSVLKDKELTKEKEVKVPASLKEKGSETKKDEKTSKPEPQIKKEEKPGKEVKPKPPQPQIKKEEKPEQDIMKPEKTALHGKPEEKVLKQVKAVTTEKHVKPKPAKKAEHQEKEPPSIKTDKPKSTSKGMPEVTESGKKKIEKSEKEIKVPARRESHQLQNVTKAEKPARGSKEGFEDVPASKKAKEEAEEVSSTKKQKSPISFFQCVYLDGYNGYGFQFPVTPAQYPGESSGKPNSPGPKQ

Molecule | percent of parent (% relative binding) (junctin) | binding result [2] | further results
wild-type (WT) calsequestrin type 1 (CSQ1), rabbit (from UniProt P07221) D363A; D365A; D367A | 92 | – | –
wild-type (WT) calsequestrin type 1 (CSQ1), rabbit (from UniProt P07221) D365A; D367A | 110 | – | –
wild-type (WT) calsequestrin type 1 (CSQ1), rabbit (from UniProt P07221) D367A | 110 | – | –
B1 | – | binds | activation of purified RyR1 in lipid bilayers by WT CSQ1 [1]: ~2.8 fold
B2 | – | binds | –
B3 | – | – | rise in activity (open probability) of purified RyR1 in lipid bilayers after trans addition of CSQ1∆C14 [1]: ~1.9 fold
